# Patent US20090104170A1
# Biological target: MHC class 1 molecules on the target cells
# Experiment: cell-based or functional assay
substance,measurement,value
monoclonal antibody W6/32 (anti-pan class 1 MHC monoclonal antibody; DAKO),"percent lysis of Volle EBV-LCLs by SKEM NK lines 2, 6 and 7 at a 10:1 E/T ratio after preculture of the targets with W6/32",> 80%
